Laboratory results: the DeepSol protein solubility set

experiment: soluble on expression in E. coli; label from the status in PepcDB or PDB records

| Sequence | soluble on expression in E. coli |
| --- | --- |
| MASMAAELRPSDGGSSLHMLDSLLMMGLSSGGGVGGGGSSQSQILDSAGAAELAALLLPQHSNDPLHLMSTGDAALGLAGPMAAAEHHQHHPHHQHHSVPATAGFPSQTPPPPLFSNATAGAAPATRVRAAGSCGSGGVAGGTTSHSSEDGVFHSADPHHHHQQHLQQPQPQQQQQQQQQPQHQQQQQQQQQQQPQQPQFHHHQPQQHQAQQAVAATAPAAAADHLFLPPAAAGAAGQQQAGWGAATGAHLFHSDAPNRPNGPKTPTNRNGYAMKPPPPAAAAAVMSGHAMAASGVVAGRGGGGGGCDAEEDELTFAAAAAAEVSSDDEVMGGRGGAVMGRAAVGGFRTPAPAPASAGAAVNVAAAAPAAPAGTWVPKGKPAVEVSAWAPAPAAPVAAAAAAAVAVSPTVAAFAAAPVVEAVALVRSQQRQEQEHQLVQVAAAEQQDQQQAKRPVRSSRRRAQESQQAAAEAQQAAQQAAAAQQQQQHTGSGNIVGDKQGKPQGGLQQGRPVATQPSPPPPAVATAAAAAAATAPVATAPVATVATAATADTMPQRLTAVQQHEAYPAVVRGTLDVRKACLPRFPLVAREQAEAELQSVATAALQQAAAAPGASAAVTAAAAAAAAAATAAGEGKAGEGKAATARRGGRGAAEAEAAAALPAVGASGNPGLDEAMGAYVRVAALYGDEAAAAVAECESLMADFDNKLQLGNLATTFAAAASPTAAASGRARGGARSGGVGGGGTKRVASGANASGANSSGMSGGGGGDSAGAEAAAGDEMEWAPGATSVDTATGGADDEDGEEEEGQQPGGAAAAAAVAAAGGEASQLAASIAATYGSQLVQVAASLAQRPKVGKLPPAATQLLKGWWDDNFVWPYPSEEDKKQLGEAAALNNTQINNWFINQRKRHWHKHFPNRRPPSTREEAERLLRAAGAI | not soluble |
| MIFEMMGEKFDKNAPIAMQSDVFPRFIINCRDGRTIFKENDTLEFELIIFDNLTELFIQYIYVFETIGQSGLGPEKARYELLSVSDGKGNIIYKNTLLTGNAPVSDIREYISSRLDYCLNNRKNISRMTLLSSVMLNSDCKNGNKKVFFFSAEAFSYSIRERLSRLNVLEKEDEEKLNELLSDKRIINGINMKLTKIDYYIQNEQKTVTFPRFKGYIVFDIERINSYLDYFFACEKLCIGQNILLGFGRYVMG | not soluble |
| MGSDKIHHHHHHMYGKTELMMSNACGLDFGTSNSTVGWTRPGHPAALLPLEDGKLTLPSVIFFHAEDPLVSYGRAALDDYLAGYEGRLMRSLKSLLGTSMMEDSTEVMGQAMPFRKLLAHFIGELKARAERSAGTTFTRAVLGRPVFFIDEDPAADRLAEQTLAEIARDAGFRDIEFQYEPIAAAFDYEAKISDEELVLVVDIGGGTSDFSLVRLSPERAKRIDRREDILANGGVHIGGTDFDRALSLARAMPLLGLGSKLRSGKEMPSSQYFDLASWHTINLVYTRKAWSIVMDNYRDAADTVKLDRLIRLIRERAGHWLAIQMEAAKIALSGVDRTDVDLHRIEPELMLSITRDEFDESIGKLVAKTEKTVTDMLASAGVDGASVDTILFTGGSSSVPMLRHQLGQLLPRARRVEGDLFGGIGSGLALDAARKFG | not soluble |
| MAIIIGADKAGQELKEVIKDYLKEGKYEVVDVSENEVRDFVDTTLAVVKEVNASDDNLGIVIDAYGVGSFMVATKIKGMVAAEVSDERSAYMTRGHNNARIITLGSEISAPGIAKNIIKGFVEGKYDGGRHQVRVDMLNKMC | soluble |
| MGSDKIHHHHHHMQTDKIFYSLFQAFTSIFFAIIGEADINPSTYEFVSVELKETAFRIDGVFKPVNETTEEPLYFVEVQFQLDPKFYRRFFAEIFLYLRQNPSVNFWRAVVIYPQRIIEPDDQQPYRSILDSSQIQRIYLDELGTANENSLQLAIMQLIIASEAIAIDQGRQLIIQARQELTDEANKKQIVELIETILLYKFTNLSREEVAAMLGIDDEFKKTRMYQSIKEDGLEEGRQEGRQQGIQEGRQEGRLQAKLEAIPRLLALGLSVEQIASALDLSIEQVQQVTGN | not soluble |
| MGSDKIHHHHHHMFALAASNMILRGDGKANLHQSSCFMTDFQDLIKNPKPETGLKRPNVGFLNPPYAQSKSDAELHELYFVKEMLDMLAEGGTGIAIIPVSCVIAPSKAKSEIVKYHRLKAVMSMPSELFYPVGTVTCIVVFEAHKPHFQTVVIDPDTQEEISTKKACRKTWFGYWRDDGFEKTKHLGRIDLYDRWQGIKARWLEHYLNNEVHTGESVTAFVTDNDEWVAEAYLETDYSKITRADFEQVVREFALFQLLGAEVGPTENLDNESYEDDDNNDFGDDE | not soluble |
| MTPPEERQMLRETVASLVAKHAGPAAVRAAMASDRGYDESLWRLLCEQVGAAALVIPEELGGAGGELADAAIVVQELGRALVPSPLLGTTLAELALLAAAKPDAQALTELAQGSAIGALVLDPDYVVNGDIADIVVAATSGQLTRWTRFSAQPVATMDPTRRLARLQSEETEPLCPDPGIADTAAILLAAEQIGAAERCLQLTVEYAKSRVQFGRPIGSFQALKHRMADLYVTIAAARAVVADACHAPTPTNAATARLAASEALSTAAAEGIQLHGGIAITWEHDMHLYFKRAHGSAQLLESPREVLRRLESEVWESP | not soluble |
| MGSDKIHHHHHHMTTSYAKIEITGTLTVLTGLQIGAGDGFSAIGAVDKPVVRDPLSRLPMIPGTSLKGKVRTLLSRQYGADTETFYRKPNEDHAHIRRLFGDTEEYMTGRLVFRDTKLTNKDDLEARGAKTLTEVKFENAINRVTAKANLRQMERVIPGSEFAFSLVYEVSFGTPGEEQKASLPSSDEIIEDFNAIARGLKLLELDYLGGSGTRGYGQVKFSNLKARAAVGALDGSLLEKLNHELAAV | not soluble |
| MLSNMLDVNLEKMERFAAKVWRKYGKEDPLAQLSFNEYDYLKVIQSAPQAIRLTDLALALEVSKPSASNMLKRLERRGLVKRVQCQSDARSQLFELTEQAELHLASEAKVYQILAEQVAQNLSSEEAMMLDLLLGKALR | not soluble |
| MFTPIDQAIEHFKQNKFVIVMDDAGRENEGDLICAAENVSTEQMAFLVRHSSGYVCAPMTNAIADKLDLPLLRTGMKFESNDDDRHGTAYTITVDVAQGTTTGISAHDRSMTCRALADSSSTPKSFLKPGHICPLRAADGGVLQRRGHTEAGVDLCKLSGLSPVAVIGELVNDDEQGTMMRLNDCQAFGKKHGIPLISIEELAQYLKK | soluble |
| MGSDKIHHHHHHMLKKQLFADRLLAQMPSLRALRCFVTAARYESFTQAAEVLCVTQAAVSRQIKELEDSLDVALFERTGRHIALTDAGRILYNASYLSIMNIAEAAEAVRRTDKHALMICVSHTFSALWLSSRLPAFRERFPDIRLNLIVTEHFMELDGLIEPDVIITKNPPREPEFDVEPMFHDIVYPVCSPAFHERHFHGRSLKPLDLLSRPTLNLSMLGRAQVCEHVDWRVWRNWFQQGDGTDTLTENKYLESNDYRLLVAQAEAGEGTLLGWHHLVHRQIDQGILMRPVQDVLVFRDRHHYLITHRNAQPRPEYQQFRQWLNDEVGVMMRGWLDAGVEGEQ | not soluble |
| MSLSSLGAPAISAASFLQDLIHRYGEGDSPTLQQLKALLNHLDVGVGRGNVTQHVQGHRNLSTCFSSGDLFTAHNFSEQSRIGSSELQEFCPTILQQLDSRACTSENQENEENEGHHHHHH | soluble |
| MAHHHHHHMSRNVAAEEEWEDVDAPNEEDEEEEDTTINNSDVMMRYKKAALWCNETLQLLLDATKPGAKVHELCKLGDETVAKKLKTMFKGTEKGLAFPTCISVNSCVAHNSPSADDEVASQEIQLGDVVHIDLGIHVDGYCAQVAHTVQVTENNELAADDDASKVISATYGILNTAMRKMRPGVSVYEVTEVIEKAAAHYGVTPVDGVLSHMLKRYIVDSFRCVPQRKVAEHLVHDYTLEAGQVWTLDIVMSSGKGKLKERDVRPTVYKVALDSNYTMKMESARELQREIEAKYQTFPFALRNLETKRARLGLSEMLKHGAVVPYPVLYERDGEVVGHFKITLLITAKKIEPVTGLKPQKAPTLPAYTDELLLEASKLPLTLEKKRKN | not soluble |
| MADKSADIQTPAPAANTSISATQQPAIQQPNVSGTVWIRQKVALPPDAVLTVTLSDASLADAPSKVLAQKAVRTEGKQSPFSFVLSFNPADVQPNARILLSAAITVNDKLVFITDTVQPVINQGGTKADLTLVPVQQTAVPVQASGGATTTVPSTSPTQVNPSSAVPAPTQYLEHHHHHH | soluble |
| MMQIDRNEKADAWLAHTQREQSGRLTIFLGAAPGVGKTYAMLTRAHELMQQGKQVVVGVVETHGRADTARLIAGLNVIPRRVVEYQDRKLEEMDLDQILHIKPEIVLVDELAHRNVPGSRHEYRWQDVNEILDAGINVYSTLNIQHLESLNDVVYQITGIRVTETVPDALLKRLKDIRLVDLPVPELLERMKHGKIYLDDMAPHALQGFFKPAHLTALRDLAIQTVAGQV | not soluble |
| MIALDQHLTEHKKDITQQWLEVCTSNGSWLYSAKDQQKLGQKLKDQHELLVTIVAKSLRKEDVEDELNRWSLQCARDRAVHEVTVTQSFGQFNTFRHIMFEWIHKFSEASSQDISIQEFYEWSRILNQNIDEIIEVFTEEYHQVTMIQLNAQKEMINELSAPIMPITDGIGILPLVGEIDTHRARTILESVLEQCSALKLSYLFLDISGVPIVDTMVAYQIFKVIDSTKLLGIETIISGIRPEIAQTVVKLGLDFSNVKTEQSLAKALANKGFKIKEC | not soluble |
| ADLLSKFDPLIAEREALLATGVRDPYAIVMDKVLSPTEAMINGRKTILLGTYNYMGMTFDPDVIAAGKQALDEFGSGTTGSRVLNGTYQGHKACEDALKEFYGTEHAIVFSTGYQANLGMISTLAGKGDYIILDADSHASIYDGCWLGDAEIVRFRHNSVEDLDKRLGRLPAEAGKLVVLEGVYSMMGDIAPLQEMVAVSKKHGAMILVDEAHGMGFFGEHGRGVFEEAGVEADVDFVVGTFSKSVGTVGGFCVSNHPKFEVLRLVCRPYVFTASLPPSVVATAATSIRKLMHAGDKRAHLWKNSRRLHQGLRDMGYKLGTETAQSAIIAVILTDMAQAVALWQGLLEAGLYVNTARPPATPAGMFLLRCSLCAEHSDEQVEQILGMFESAGRATGVIPKLAAALEHHHHHH | soluble |
| MGSDKIHHHHHHLDVDTGKLQSLAASRYGARGARAVDDWLQLLRNDTSASEANQLARVNAFWNQRVLSGEDTHIWGRADYWATPLETLGKGAGDCEDYVIGKYFSLISLGVPTEKLRFIYVRARIGGPYSNQQIAHMVLGYYPTPNAVPLVLDSLISTIMPANERRDLTPVFSFNADGVYVDGKQASPVDRLSRWRDLLLRMEREGLRP | not soluble |
| MSLTDVLTATYELYLAEGESPEGKARGIALEQTVEMPADCLPGDIAERMVGRIRTLEPRADHWVLEIDYPLAAIGGELTQCLNLLFGNISLQSGIRLVQVAWPPSLLRRWGGPGLGVSGLRARLDVGARPLLCAALKPMGLSAPALAARCAAFARGGVDLIKDDHGLADQPDAPFAERLNACQDAVRQANRRSGGRSLYLPNVTAAPQALGERLAAARDAGCEMVLISPWLTGLETLRWARDEYGLALMAHPAMTGGLFLPRHGISPALLLGELFRIAGADAVIYPNVGGRFRFSADTCQAINHALRRPLEGLASAWPTPGGGVDVKRAGHWKQAYGPDTILLIGGSLYAQGDIEAASRALMQAIRDEGHHHHHH | soluble |
| MVYPRLLINLKEIEENARKVVEMASRRGIEIVGVTKVTLGDPRFAETLRKAGIGILGESRIRNVLRMKKAGIEGPFMLLRLPMMSELVEDVKHFDYIMVSDPDVAKKVDELSREMKRNVKIIYMIDVGDLREGVWFEKAVEEIAQCRGANIVGIGTNFGCYGGIIPTREKFEILLDIKEKLEKNHGFNIEIVSGGNTPALYALENGEIPEGINQLRIGEAIVLGRDITNNRVIDWLSQNTFLIEAEVIEVKEKPSVPLGKRGLDVFGRKVDFVDRGIRKRAICALGEQDIDSRGLIPVDKGVEVLHASSDHIVLDVTDFGDVKVGDVFRFRMTYSCLLKAMTSPFVEKVYEPSI | soluble |
